The nature of the series: yeast display, Sf9 membrane polyspecificity reagent, FACS + sequencing; frameworks hold sequencing errors. An outline of the steps: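 Sorting gates, low and high (top ~1%), were placed on anti-HA fluorescence to track expression and on streptavidin fluorescence to track reagent binding. A clone's polyreactivity label is taken from the gate it came out of. The reagent was 10% biotinylated, detergent-solubilized Sf9 membrane, applied for 1 hour at 4 °C to galactose-induced yeast display cells.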
“QVQLVESGGVFVQAGGSLRLSCAASGSIFPYVNAMGWYRQAPGKEREFVASIPGGGGTKYADSVKGRFTISRDNAKNTVYLQMNSLKAEDTAVYYCNATSGNPASTAWMNYWGQGTQVSVSS”: the “polyreactivity (PSR sort gate)” value is “low polyreactivity”.

On to “QVQLVESGGGLVQAGGSLRLSCAASGLTLTSNAMGWYRQAPGKERELVAAINGSGGITYYADSVKGRFTISRDNAKNTVYLQMNSLKPEDTAVYYCNTVHYNLDYEYDYWGQGTQVTVSS”, for which the “polyreactivity (PSR sort gate)” value is “low polyreactivity”.

“QVQLVESWGGLVQAGGSLRLICAASGSTFRDYFLGWYRRAPGKERELVATISGSGGSTYYADSVKGRFTISRDNAKNTVYLQMNSLKPEDTAFYYCAAVSVSSWYDYWGQGTQVTVSS”: the “polyreactivity (PSR sort gate)” value is listed as “low polyreactivity”.

Consider “QVQLVESGGGLVQAGGSLRLSCAASGSIFDNAMGWYRQAPGKERELVAAISLSGSRTYYADSVKGRFTISRDNAKNTVYLQMNSLKPEDTAVYYCNTELVYYSTYDYWGQGTQVTVSS”, for which the “polyreactivity (PSR sort gate)” value is reported as “low polyreactivity”.

In the case of “QVQLVESGGGLVQAGGSLRLSCAASGRTFVKNAMGWYRQAPGKERELVATISSSGASTRYADSVKGRFTISRDNAKNTVYLQMNSLKPDDSAVYYCAAGYGFPRDYWGQGTQVTVSS”, the “polyreactivity (PSR sort gate)” value is “high polyreactivity”.

“QVQLVESGGGLVQAGGSLRLSCAASGSTFNAYAMGWYRQAPGKERELVAAISYTGGSTYYADSVKGRFTISRDNAKNTVYLQMNSLKPEDTAVYYCARRQARKFYYWGQGTQVTVSS”: the “polyreactivity (PSR sort gate)” value was “high polyreactivity”.

Turning to “QVQLVESGGGLVQAGGSLRLSCAASGRTFAAYAMGWYRQAPGKERELVAAIRRGGTTNYADSVKGRFTISRDNAKNTVYLQMNSLKPEDTAVYYCAALAPYSRSWVTYDYWGQGTQVTVSS”, the “polyreactivity (PSR sort gate)” value is “low polyreactivity”.

As to “QVQLVESGGGLVQAGGSLRLSCAASGSTFYVYAMGWYRQAPGKERELVAAITTGGSTYYADSVKGRFTISRDNAKNTVYLQMNSLKPEDTAVYYCAADDPDPYDVPSYDYWGQGTQVTVSS”, the “polyreactivity (PSR sort gate)” value was “low polyreactivity”.

Turning to “QVQLVESGGGLVQAGGSLRLSCAASGFIFSWNAMGWYRQAPGKERELVAVITWSGSRTNYADSVKGRFTISRDNAKNTVYLQMNSLKPEDTAVYYCATKGPVYTSSRPVSGGAYNYWGQGTQVTVSS”, the “polyreactivity (PSR sort gate)” value is “low polyreactivity”.

Regarding “QVQLVESGGGLVQAGGSLRLSCAASGFIFTDYTMGWYRQAPGKERELVAAIDSSGGGTHYADSVKGRFTISRDNAKNTVYLQMNSLKPEDTAVYYCAAADYLIQFWYQYDYWGQGTQVTVSS”, the “polyreactivity (PSR sort gate)” value is “low polyreactivity”.

For “QVQLVESGGGLVQAGGSLRLSCAASGRTFYFYTMGWYRQAPGKERELVATINWSGTSTYYADSVKGRFTISRDNAKNTVYLQMNSLKPEDTAVYYCAVRGGRYKYGYDYWGQGSQVTVSS”, the “polyreactivity (PSR sort gate)” value is listed as “high polyreactivity”.

In the case of “HVQLVESGGGLVQAGGILRLSFAASGFIFCYYTMGWYRQATGKERELVAAINSGGSTNYADSVKGRFTISRDNAKNTVYLQMNSLKPEDTAVYYCAALVWYSGELFYYWGQGTQVTVSS”, the “polyreactivity (PSR sort gate)” value is “low polyreactivity”.

As for “QVQLVESGGGLVQAGGSLRLSCAASGSTFSRYAMGWYRQAPGKEREMVAAINTRGGSTYYADSVKGRFTISRDNSKNTVYLQMNSLKPEDTAVYYCARRFYGFGPYYPFDYWGQGTQVTVSS”, the “polyreactivity (PSR sort gate)” value is listed as “low polyreactivity”.

As for “QVQLVESGGGLVQAGGSVRLSCAASGRTSAWYAMGWYRQAPVKERELVADISGSADSTYYADSVKGRFTISRDNAKYTVYVQMHSLKPEDTAVYYRATSISTPTGDPFDYWGQRTQVTVSS”, the “polyreactivity (PSR sort gate)” value was “low polyreactivity”.

For the sequence “QVQLVESGGGLVQAGGSLRLSCAASGRTFGQNTMGWYRQAPGKERELVATITSDGGDTYYADSVKGRFTISRDNAKNTVYLQMNSLKPEDTAVYYCKADYAGPKYVGYTFRSFTMDYWGQGTQVTVSS”, the “polyreactivity (PSR sort gate)” value is reported as “low polyreactivity”.

For “QVQLVESGGGLVQAGGSLRLSCAASGSTFYPYLIGWYRQAPGKERELLPAISGGGRTYYADSVKGRFTISRDNAKNTVYLQMNSLKPEDTAVYFCAARYTTYSGRGTRPAGIRYDYWGQGTQVTVSS”, the “polyreactivity (PSR sort gate)” value is “high polyreactivity”.

“QVQLVESGGGLVQAGGSLRLSCAASGNTFRRNVMGWYRQAPGKERELVAAINRGGSTTYADSVKGRFTISRDNAKNTVFLQMNSLKPEDTAVYYCNAEKRGQSYRFDYWGQGTQVTVSS”: the “polyreactivity (PSR sort gate)” value is “high polyreactivity”.

As for “QVQLVESGGGLVQAGGSLRLSCAASGSIFRVNDMGWYRQAPGKERELVAAISSNGDDTFYADSVKGRFTISRDNAKNTVYLQMNSLKPEDTAVYYCNAESPTYPDYYFKYTHYDYWGQGTQVTVSS”, the “polyreactivity (PSR sort gate)” value was “low polyreactivity”.

“QVQLVESGGGLVQAGGSLRLSCAASGRTFGSYAMGWNRPATRLERELVAAISDGGSTNYADSVKGRFTISRDNAKITVYLQMNSLTPEDTAVYYCAAEIFFAVFRFYYSGQGTQVTVSS”: the “polyreactivity (PSR sort gate)” value was “low polyreactivity”.

“QVQLVESGGGLVQAGGSLRLSCAASGFILPYYTMGWYRQAPGKDRELVAAITYSGASPFYADSVKGRFTISRVNAKNTVYLQMNSLKPEDTGVYYGANEWSGWYESPLDDGDYDYWGQGTEVTVSS”: the “polyreactivity (PSR sort gate)” value was “low polyreactivity”.

Take “QVQLVESGGGLVQAGGSLRLSCAASGRIFYYYAMGWYRQAPGKERELLAAITRGGGTYYADSVKGRFTISRDNAKNTVYLQMNSLKPEDTAVYYCAKRGPPESHHPYRYRFDYWGKGTQVTVSS”: the “polyreactivity (PSR sort gate)” value is given as “low polyreactivity”.

Regarding “QVQLVESGGGLVQAGGSLRLSCAASGITVALNAMGWYRQAPGKERELVAAISWSGDSTYYADSVKGRFTISRDNAKNTVYLQMNSLKPEDTAVYYCNTYPRRFFYSQRYDYWGQGTQVTVSS”, the “polyreactivity (PSR sort gate)” value was “low polyreactivity”.

Consider “QVQLVESGGGLVQAGGSLRLSCDASGRIYLYAMGWYRQAPGKERELVAAITTRAGRTYYADSVKGRFTISRDNAKNTVYFQMNSLKPEDNAVSYCAADGTRYPAYGYWGQGTQVTVSS”, for which the “polyreactivity (PSR sort gate)” value was “low polyreactivity”.

Consider “QVQLVESGGGLVQAGGSLRLSCAASGSIFVYNAMGWYRQAPGKERELVAAISQRGGSTYYADSVKGRFTISRDYSKNTVYLQMNSLKPEDTAVYYCAAGPGDSGDDYWGQGTQVTVSS”, for which the “polyreactivity (PSR sort gate)” value was “low polyreactivity”.

With “QVQLVESGGGLVQAGGSLRLSCAASGSTFAPNTMGWYRQAPGKERELVARITTSDGSTTYADSVKGRFTISRDYAKNTVFFQMNILNPEDTAVYYCARDNTFCTWPSSLYDYWGQGTQVTVSS”, the “polyreactivity (PSR sort gate)” value is “low polyreactivity”.

On to “QVQLVESGGGLVQAGGSLRLSCAASGYTFVYNGMGWYRQAPGKERELVAAIRRRTGTTYYADSVKGRFTISRDNAKNTVYLQMNSLKPEDTAVYYCAATGFWGYDWGQGTQVTVSS”, for which the “polyreactivity (PSR sort gate)” value is listed as “high polyreactivity”.

Consider “QVQLVESGGGLVQAGGSLRLSCAASGIIFKVNAMGWYRQAPGKERELVAAISRRGGITYYADSVKGRFTISRDNAKNTVYLQMNSLKPEDSAVYYCAAAYSDYRFSTRYPYNYWGQGTQVTVSS”, for which the “polyreactivity (PSR sort gate)” value is recorded as “high polyreactivity”.

For the sequence “QVQLVESGGGLVQAGGSLRLSCAASGSTFGWYAMGWFRQAPGKERELVAAITSGGSTKYADSVKGRFTISRDNAKNTVYLQMNSLKPEDTAVYYCATVRGYYSPVQVIGYFWGQGTQVTVSS”, the “polyreactivity (PSR sort gate)” value is “high polyreactivity”.

In the case of “QFQHVESGGCLDQAGRSLRLSSAASGYIFVNAMGWYRQPPGKEMELVAAISSGGSTHYADSVKGRFTISRDNAKYTVYLQMNSLKPEDTAVYYCAAGSFYYGIVQGWYDYWGQGTQVTVSS”, the “polyreactivity (PSR sort gate)” value was “high polyreactivity”.

On to “QVQLVESGGGLVQAGGSLRLSCAASDTPSSSMLMGWYRQAPGKERELVAAISGSDGTTYYADSVKVRFTISRDNAKNTVYLQMNSLKPEDTAVYYCAADDRVYSGYIKDDYWGQGTQVTVSS”, for which the “polyreactivity (PSR sort gate)” value is recorded as “low polyreactivity”.

For “QVQLVESGGGLVQAGGSLRLSCAASGTFKWYAMGWYRQAPGKERELVAVISSSGGTTYYADSVKGRFTISRDTAKITVYLQMNSLKPEDTAFYYCNAAKLFRYDYWGQGTQVTVSS”, the “polyreactivity (PSR sort gate)” value is reported as “high polyreactivity”.

For the sequence “QVQLVESGGGLVQAGGSLRLSFAASGRIFLRYAMVWYRHAPGKERELVAAISSRGGRTYYADSVKGRFTISRDNAKNTVYLQMNSLKPEDTAVYYCAAEGYYVTPFDYWGQGTQVTVSS”, the “polyreactivity (PSR sort gate)” value was “high polyreactivity”.

For the sequence “QVQLVESGGGLVQAGGSLRLSCAASGSTFGFYTMGWYRQAPGKERELVAAISWSTGRTYYADSVKGRFTISRDNAKNTVYLQMNSLKPEDTAVYYCAARALDKYRFGGRYDYWGQGTQVTVSS”, the “polyreactivity (PSR sort gate)” value was “low polyreactivity”.

Consider “QVQLVESCGGLVQAGGSLRLSCAASGSIFGDYVMGWYRQAPGKERELVAAINRGGSTYYADSVKGRFTISRDNAKNTVYLQMNSLKPEDTAVYYCAAGYPSWYYGYPYDSWGQGTQVTVSS”, for which the “polyreactivity (PSR sort gate)” value is recorded as “low polyreactivity”.

With “QVQLVESGGGLVQAGGSLRLSCAASGSTFGYNGMGWYRQAPGKERELVAAISGGARTYADSVKGRFTISRDNAKNTVYLQMNSLKPEDTAVYYCAADSPVSVTADDGYWGQGTEVTVSS”, the “polyreactivity (PSR sort gate)” value is listed as “low polyreactivity”.

Regarding “QVQLVESGGGLVQAGGSLRLSCAASGIIFYRNTMGWYRQAPGKEWELVAAIRRGGNTYYADSVKGRFTISRDNAKNTVYLQMNSLKPEDTAVYYCAASAGPRASYYYWGQGTQVTVSS”, the “polyreactivity (PSR sort gate)” value is listed as “high polyreactivity”.

On to “QVQLVESGGGLVQAGGSLRLRCAASGSTFYGYAMGRYRQAPGTERELVALISSSSGRTYYADSVKGRFTISRDNAKNTLYLQMNSLKPEDTAVYDCAKYVFGKFEGVRYSFDYWGQGTQVTVSS”, for which the “polyreactivity (PSR sort gate)” value is “low polyreactivity”.

Consider “QVQLVESGGGLVQAGGRLRLSCSASGSIFVTYDMGWYRQAPGKERELVAGISGSGSTNYADSVKGRFTISRDNAKNTVYLQMNSLKPEDTAVYYCAAEYEYLWSQYLTDYGYDYWGQGTQVTVSS”, for which the “polyreactivity (PSR sort gate)” value was “low polyreactivity”.

On to “QVQLVESGGGLVQAGGSLRLSCAASGRIFRYYTMGWYRQAPGKERELVAAISWTGGRTYYADSVKGRFTISRDNAKNTVYLQMNSLKPEDTAVYYCAATNRYYIFDYWGQGTQVTVSS”, for which the “polyreactivity (PSR sort gate)” value is listed as “high polyreactivity”.

Take “QVQLVESGGGLVQAGGSLRLSCAASGSIFADYAMGWYRQAPGKERELVAVISRRGGTTYYADSVKGRFTISRDNAKNTVYLQMNSLKTEDTAVYYCAARRSFNEYDYWGQGSQVTVSS”: the “polyreactivity (PSR sort gate)” value is on record as “high polyreactivity”.

Values taken from the nanobody polyreactivity screen of Harvey et al. (2022).
